This note sets out measurements from patent US12227551B2, “Membrane bound IL12 compositions and methods for tunable regulation” (Obsidian Therapeutics, Inc., priority 2018, dated 2025).

One assay has as its system Nalm-6 cells. The experiment in a line: 48 hour cytotoxicity assay, T cells co-cultured with Nalm-6 NucRed cells, Incucyte (Example 7; Table 21). The format is cell-based. The method, then: For cytotoxicity assays, T cells were thawed and co-cultured with Nalm-6 cells (stably expressing NucRed®) at different T cells to Nalm-6 cell culture ratios. Target cell viability was determined by measuring cellular fluorescence over time using an Incucyte assay and the results are shown in Table 21.

A further assay has as its system CD19+ Nalm6 tumors. The experiment in a line: Nalm6-Luc tumor burden by BLI, mean total flux, NSG mice given CAR-T cells (Example 9; Table 28). In kind it is in vivo. Here is the method: The study was designed to determine if membrane bound IL12 (mbIL12) expressed on CAR-T cells via a CD8 TM domain and CD8 Hinge Region promotes CAR T cell expansion in cis, promotes non-CAR-T cell expansion in trans, and/or increases in vivo CAR T cell efficacy against CD19+ Nalm6 tumors. To test in vivo anti-tumor activity, experiments were performed in NSG mice. Nalm6 cells were transfected with Redifect Red-Fluc (Perkin Elmer) under selection using Puromycin for ˜2 months to generate a line that stably expresses the luciferase reporter; thereafter named Nalm6-Luc. Ten days before tumor implantation, Nalm6-Luc cells were thawed and cultured in puromycin-containing media. On day 0, cells were counted, resuspended in PBS and injected into NSG mice via tail vein. On day 6, mice were imaged for bioluminescent intensity (BLI) and sorted into groups based on their tumor size ensuring that all groups had the same sized tumors. Human T cells were transduced with one of the following constructs as shown in the study design in Table 27:
Next, holding total CAR+ T cell dose constant at either 300,000 or 1 million cells per animal, transduced T cells were intravenously infused into mice on day 7. Tumors were monitored in mice using BLI and the mean of the Total Flux (photons/second) was calculated for each group as an indicator of tumor burden (Table 28). In order to track the trans effect of IL12 expressing CART cells on T cells that lack expression of IL12, 5 million GFP+ T cells (negative for IL12) were co-infused with the IL12-expressing CAR+ T cells, and peripheral blood draws taken over time to evaluate the effect of IL12 on phenotypic changes in GFP+ T cells by flow cytometry analysis.

B1: OT-001356: CD19 CAR; stop; IRES; secreted IL12 (p40 23-328; (G4S)3; p35 57-253); nucleic acid SEQ ID NO: 482 (protein)
chain: IWELKKDVYVVELDWYPDAPGEMVVLTCDTPEEDGITWTLDQSSEVLGSGKTLTIQVKEFGDAGQYTCHKGGEVLSHSLLLLHKKEDGIWSTDILKDQKEPKNKTFLRCEAKNYSGRFTCWWLTTISTDLTFSVKSSRGSSDPQGVTCGAATLSAERVRGDNKEYEYSVECQEDSACPAAEESLPIEVMVDAVHKLKYENYTSSFFIRDIIKPDPPKNLQLKPLKNSRQVEVSWEYPDTWSTPHSYFSLTFCVQVQGKSKREKKDRVFTDKTSATVICRKNASISVRAQDRYYSSSWSEWASVPCSGGGGSGGGGSGGGGSRNLPVATPDPGMFPCLHHSQNLLRAVSNMLQKARQTLEFYPCTSEEIDHEDITKDKTSTVEACLPLELTKNESCLNSRETSFITNGSCLASRKTSFMMALCLSSIYEDLKMYQVEFKTMNAKLLMDPKRQIFLDQNMLAVIDELMQALNFNSETVPQKSSLEEPDFYKTKIKLCILLHAFRIRAVTIDRVMSYLNASGS
With B1, the “Average Total Nalm6-NucRed Area after 48 hour at E:T ratio of 3:1” value with Nalm-6 cells (E:T 3:1, 48 hour) is on record as 33,079. Moreover, the “Average Total Nalm6-NucRed Area after 48 hour at E:T ratio of 10:1” value with Nalm-6 cells (E:T 10:1, 48 hour) is 32,236. Besides, the “Mean Total Flux (Nalm-6 Tumor Burdon)” value with CD19+ Nalm6 tumors (day 6 post tumor implant, day −1 post T cell transfer (before infusion), cell dose not given) was determined as 1069500 photons/second; in the assay with CD19+ Nalm6 tumors (day 13 post tumor implant, day 6 post T cell transfer) it was 17363750 photons/second; with CD19+ Nalm6 tumors (day 20 post tumor implant, day 13 post T cell transfer), 555500 photons/second; in the assay with CD19+ Nalm6 tumors (day 27 post tumor implant, day 20 post T cell transfer), 769125 photons/second; in the assay with CD19+ Nalm6 tumors (day 34 post tumor implant, day 27 post T cell transfer), 743125 photons/second; in the assay on CD19+ Nalm6 tumors (day 41 post tumor implant, day 34 post T cell transfer) it was 716750 photons/second.
